Results reported in patent publication US20090324700A1, “METHODS AND COMPOSITIONS FOR THE INHIBITION OF CATHEPSINS” (priority 2003, published 2009).

Columns and labels:
[1] = test system: CD8 cells and B lymphocytes in PBLs; test: Generation of bone marrow chimeras transduced with retrovirus: engraftment of CD8 cells and B lymphocytes in PBLs; type: in vivo, mouse; conditions: 8 weeks after bone-marrow transfer, before infection; vs GFP mice
[2] = test system: caspase-8, 9 and 3, and Bid; test: Death effector assays: caspase and Bid activation (western blots, enzyme assays), RelA^−/− MEFs; type: cell-based, mouse; conditions: TNF-α 0.2 ng/ml, CHX 0.1 μg/ml; FIG. 5A, 5B
Method: Death effector assays. Death effector pathways were induced in […] MEFs by treatment TNF-α (0.2 ng/ml) and CHX (0.1 μg/ml). Assays for executioner proteases (caspases and cathepsin B) were performed on crude cytoplasmic extracts (Stegh et al., 2000). Briefly, MEFs (10^6) were lysed in 10 mM Tris-Cl, pH 7.5, 100 mM NaCl, 1 mM EDTA, 0.01% Triton X-100 (50 μl) for 30 min on ice then centrifuged at 15,000 g for 30 min at 4° C. and the supernatant recovered. Protein concentration was determined by Lowry assay (DC-protein assay kit, Biorad). […]
Colorimetric assays for capases were performed in reaction buffer (50 mM HEPES, pH 7.4, 100 mM NaCl, 10 mM DTT, 1 mM EDTA, 10% glycerol, 0.1% CHAPS) at 37° C. on crude cytoplasmic extracts using p-Nitoaniline (pNA)-labeled substrates (Calbiochem) specific for caspases 3 and 7 (Ac-DEVD-pNA), caspase 8 (Ac-IETD-pNA), caspase 9 (Ac-LEHD-pNA), each at 0.2 mM. Specific activity was determined by subtracting the apparent activity detected after 1 h pre-incubation of extract with the pan-caspase inhibitor Z-VAD.fmk at 50 μM (ICN Biomedicals Inc), then normalizing for the amount of protein. […] Specific activity was determined by subtracting the apparent activity detected after 30 min pre-incubation of extract at 37° C. with the cathespin B inhibitor CA-074 Me at 30 μM (Peptide Institute) then normalizing for the amount of protein.

[3] = test system: secondary anti-LCMV CD8 cells; conditions: mouse, in vivo
RelA^−/− MEFs = test: Lysosome internal pH (acridine orange, flow cytometry), RelA^−/− MEFs; type: cell-based, mouse; conditions: TNF-α 0.2 ng/ml, CHX 0.1 μg/ml; FIG. 8
Method: FIG. 8. Spi2A offers partial protection of lysosomal de-acidification in […]. RelA^−/− MEFs were transduced by retrovirus encoding GFP alone or Spi2A as indicated by the percentage AO-low cells after treatment with TNF-α (0.2 ng/ml) and CHX (0.1 μg/ml). The percentage of intact lysosomes was determined by staining with AO as has been described previously (Zhao et al., 2000). Briefly, cells were incubated with AO (5 μg/ml), washed and collected for flow cytometric assessment of uptake into intact lysosomes as indicated by red fluorescence (FL3 channel).
The inhibitory reaction was too fast to be measured using our conventional spectrophotometer. […] Lysosome internal pH was measured by staining with the weak basic, lysosomotropic dye—acridine orange (AO)— and flow cytometry (Zhao et al., 2000). Increase in lysosomal pH results a corresponding decrease in AO red fluorescence and the appearance of AO-low cells. It was shown that TNF-R1 cross-linking results in the appearance of AO-low cells in Rel A^−/− MEFs transduced with control retrovirus (GFP) (Supplementary FIG. 4). […] The appearance of AO-low cells can be interpreted as lysosomal rupture, and so it is possible that Spi2A in some way protects lysosomes from damage induced by TNF-α.

Spi2A mRNA = conditions: mouse, in vivo
cathepsin B = target: T1, cathepsin B (Homo sapiens, UniProt P07858); test: Kinetics of cathepsin B inhibition by Spi2A; type: biochemical
T1 construct: purchased Calbiochem or Athens Research and Technology

B1: Spi2A: murine Spi2A polypeptide, SEQ ID NO:2; purified as C-terminal 3×FLAG protein or expressed from MIGR1 retrovirus in cells and bone-marrow chimeras (protein, listed as Mus musculus)
chain: MAGVSPAVFGCPDVTLGRNTAVREVQENVTSVDSLTLVSSNTDFAFSLYRKLVLKNPDENVVFSPFSICTALALLSLGAKSNTLKEILEGLKFNLTETPEPDIHQGFRYLLDLLSQPGNQVQISTGSALFIEKHLQILAEFKEKARALYQAEAFTADFQQPLKATKLINDYVSNHTQGKIKELISGLKESTLMVLVNYIYFKGKWKNPFDPNDTFKSEFYLDEKRSVIVSMMKTGYLTTPYFRDEELSCTVVELKYTGNASAMFILPDQGRMQQVEASLQPETLRKWKNSLKPRMIHELRLPKFSISTDYSLEHILPELGIREVFSTHADLSAITGTKDLRVSQVVHKAVLDVAEKGTEAAAATGMAGVGCCAVFDFLEIFFNRPFLMIISDTKAHIALFMAKVTNPERSTNFPNGEGASSQRLESKRLCFGDPLCLIGQ
modifications: C-terminal 3xFLAG tag
notes: purified as C-terminal 3×FLAG protein or expressed from MIGR1 retrovirus in cells and bone-marrow chimeras
Percentage of CD8 cells in transduced (GFP-positive) PBLs [1]: no difference | Activation of apical and executioner caspases and Bid [2]: suppressed | Number of anti-LCMV CD8 cells per spleen GFP^− [3]: 45.94 ± 7.55 (n = 4) ×10^−5 | Percentages and absolute numbers of secondary anti-LCMV CD8 cells (recall response) [3]: significantly increased | proportional change of anti-LCMV CD8 cells compared to the GFP control [3]: (417%) | Appearance of AO-low cells (lysosomal de-acidification) (RelA^−/− MEFs): less AO-low cells | Spi2A mRNA in GFP^+ CD8^+ spleen cells (Spi2A mRNA): significant increase | second-order association rate constant for the inhibition of cathepsin B (cathepsin B; 20 nM cathepsin B, 5 μM (Z-FR)2-R110, 200 or 400 nM Spi2A, pseudo-first order conditions): > 10^6 M^−1 s^−1 | Inhibition of cathepsin B within the dead time of the measurement (cathepsin B; dead time ˜30 s, 200 or 400 nM Spi2A): completely inhibited
